In paper PMC4089486 (Acta Crystallographica Section D: Biological Crystallography, 2014):

Molecular target: Clostridium difficile strain 630 alanine racemase, recombinant wild type (Clostridium difficile strain 630, UniProt A0AC59G415 1-385)
Experiment: SEC
Settings: both partners purified

B1: CdAlr cleavage product, amino acids 1-271 (domain or fragment)
chain: MQKITVPTWAEINLDNLRFNLNNIKNLLEEDIKICGVIKADAYGHGAVEVAKLLEKEKVDYLAVARTAEGIELRQNGITLPILNLGYTPDEAFEDSIKNKITMTVYSLETAQKINEIAKSLGEKACVHVKIDSGMTRIGFQPNEESVQEIIELNKLEYIDLEGMFTHFATADEVSKEYTYKQANNYKFMSDKLDEAGVKIAIKHVSNSAAIMDCPDLRLNMVRAGIILYGHYPSDDVFKDRLELRPAMKLKSKIGHIKQVEPGVGISYGLK
B1: binds.
